Assay results: article PMC6796926, “Pioneering function of Isl1 in the epigenetic control of cardiomyocyte cell fate”

Assays:
[1] = biological target: T1, Isl1 homeodomain (Isl1-HD) (UniProt P61372 181-240); experiment: competition; 80x excess vs free and nucleosomal Ttn DNA, 0.5 uM Isl1; 40 mM KCl, 15 mM HEPES pH 8.0, 1 mM EDTA, 0.5 mM DTT, 2 mM MgCl2, 5% glycerol, 10 ng/ul poly dI/dC, 0.1 mg/ml BSA, 30 min, RT; 4% PAGE in 0.5x TBE; conditions: protein: recombinant; tags: 6xHis; blunt
T1 sequence: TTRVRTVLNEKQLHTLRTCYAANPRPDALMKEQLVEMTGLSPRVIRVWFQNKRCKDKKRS

[2] = biological target: T1, Isl1 homeodomain (Isl1-HD); experiment: EMSA; 0-1 uM Isl1; 40 mM KCl, 15 mM HEPES pH 8.0, 1 mM EDTA, 0.5 mM DTT, 2 mM MgCl2, 5% glycerol, 10 ng/ul poly dI/dC, 0.1 mg/ml BSA, 30 min, RT; 4% PAGE in 0.5x TBE; conditions: protein: recombinant; tags: 6xHis; label: biotin (PCR primers); blunt

B1: specific competitor (Insulin enhancer) (dsDNA)
DNA 1: CCCTTGTTAAGACTCTAATTACCCTAG
DNA 2: CTAGGGTAATTAGAGTCTTAACAAGGG
B1: binds [1].

B2: nonspecific competitor (NS) (dsDNA)
DNA 1: CAAGCAAAACAAACCA
DNA 2: TGGTTTGTTTTGCTTG
B2: no binding [1].

B3: free Ttn DNA (dsDNA)
DNA 1: CGGTGTCTGCTATCACTCAGTTTCATCCCTTTCTTCCCAAATGGCCAGTTTCATGTTGTGTATCTTGACAGTGACTCCCAACCAGAGACTCCTGTTAAGGGAACTTGTCAGTCATAATAGACAATAAGTGAACTTCTTGTTCGGGGTGCTCAATAATTTGCT
DNA 2: AGCAAATTATTGAGCACCCCGAACAAGAAGTTCACTTATTGTCTATTATGACTGACAAGTTCCCTTAACAGGAGTCTCTGGTTGGGAGTCACTGTCAAGATACACAACATGAAACTGGCCATTTGGGAAGAAAGGGATGAAACTGAGTGATAGCAGACACCG
B3: binds [2].
